{
  "source": "paper PMC1569432",
  "about": "“The yfhQ gene of Escherichia coli encodes a tRNA:Cm32/Um32 methyltransferase” (BMC Molecular Biology, 2006)",
  "biological_target": "the molecule itself",
  "test": "SEC; gel filtration of purified YfhQ on Superdex 200 in buffer B (50 mM Tris-HCl pH 7.5, 150 mM NaCl, 10 mM MgCl2, 10% glycerol); self-association, dimer",
  "data": [
    {"protein": "YfhQ protein of Escherichia coli, His-tagged (enzyme, UniProt P0AE01 1-246, looked up, YfhQ (TrmJ), SPOUT superfamily methyltransferase of Escherichia coli; yfhQ gene in the pCA24N vector; theoretical mass of the His-tagged monomer 29.168 kDa; also called TrMet(Xm32); TrmJ; source: E. coli BL21 (DE3), purified (Ni2+ Chelating Sepharose, Superdex 200 gel filtration)) MLQNIRIVLVETSHTGNMGSVARAMKTMGLTNLWLVNPLVKPDSQAIALAAGASDVIGNAHIVDTLDEALAGCSLVVGTSARSRTLPWPMLDPRECGLKSVAEAANTPVALVFGRERVGLTNEELQKCHYHVAIAANPEYSSLNLAMAVQVIAYEVRMAWLATQENGEQVEHEETPYPLVDDLERFYGHLEQTLLATGFIRENHPGQVMNKLRRLFTRARPESQELNILRGILASIEQQNKGNKAE", "values": [
      {"measurement": "stoichiometry N", "result": 2}
    ]}
  ]
}
